Measured values reported in US20220289837A1 (VIB VZW, published 2022).

Tests used:
[1] = molecular target: T1, Stabilized human CFTR (stab-CFTR: 2PT/ΔRI/R1048A_1172X) (human, UniProt P13569 1-1171, limits assumed); assay: cell-based or functional assay
[2] = molecular target: T1, Stabilized human CFTR (stab-CFTR: …); assay: cell-based or functional assay; remark: listed apart in the source
[3] = molecular target: 2PT-NBD1-RE (2PT-NBD1 with residues 387-678, containing the regulatory extension) (human, UniProt P13569 387-678, biotinylated for the ELISA (sites not given)); assay: ELISA, biotinylated 2PT-NBD1-RE on avidin-coated plate, T2a titrated
From the text: The location of these nanobodies completely overlaps (FIG. 11a) with that of the C-terminal regulatory extension (RE) observed in previously published structures of NBD1^{[25,26].} The RE segment, comprising residues 654-673 was removed from the 2PT-NBD1 construct used for immunization and characterization. While the functional role of the RE is still unclear, it has been described to be a very mobile domain^{[27]}. […] This is consistent with RE being a dynamic region of CFTR.
For dose-response assays, Nunc MaxiSorp 96-well plates (ThermoScientific), were coated with 5 μg/ml NeutrAvidin Biotin-Binding protein (ThermoScientific) overnight at 4° C. and blocked 2 h at room temperature (RT) with 2% milk in phosphate-buffered saline (PBS). Each new reagent addition was preceded by three washes with 200 μl of NBD1 buffer (20 mM HEPES pH 7.5, 150 mM NaCl, and 10% (w/v) glycerol, 10% (w/v) ethylene glycol, 2 mM ATP, 3 mM MgCl₂). Then, biotinylated purified NBD1 proteins at 5 μg/ml were immobilized 30 min at RT followed by 1 h RT incubation with 100 μl various concentrations (0-20 μg/ml) of purified nanobodies. […] 50 μl of 1-Step UltraTMB-ELISA (ThermoScientific) was used as a substrate for the peroxidase and intensity of the reaction was proportional to absorbance measured at 450 nm with SynergyMx (BioTek) after addition of 50 μl H₂SO₄ at 1M.

F508del-2PT-NBD1 [4] = molecular target: T2, F508del-2PT-NBD1 (human, UniProt P13569 388-646, biotinylated for the ELISA (sites not given)); assay: ELISA, biotinylated F508del-2PT-NBD1 on avidin-coated plate, nanobody titrated, anti-His detection
T2 construct: also called F508del-2PT-NBD1 mutant
Method: (§1) (a) Nanobody binding to 2PT-NBD1 measured by ELISA. Biotinylated 2PT-NBD1 was immobilized on avidin-coated plates and incubated with increasing concentration of each nanobody. Binding of nanobody was followed by immunodetection of the His-tag (see Methods). Representative curve of 3 independent experiments is shown. Error bars represent the standard deviation (SD) of duplicates. Data were normalized to maximum signal for each nanobody separately. (b) Nanobody binding to F508del-2PT-NBD1 measured by ELISA as described in panel a. (c) Nanobody T4 binding to 2PT-NBD1 and F508del-2PT-NBD1. Data were normalized to maximum signal of T4 binding to 2PT-NBD1. (d) Nanobody T8 binding to 2PT-NBD1 and F508del-2PT-NBD1. Data were normalized to maximum signal of T8 binding to 2PT-NBD1.
For dose-response assays, Nunc MaxiSorp 96-well plates (ThermoScientific), were coated with 5 μg/ml NeutrAvidin Biotin-Binding protein (ThermoScientific) overnight at 4° C. and blocked 2 h at room temperature (RT) with 2% milk in phosphate-buffered saline (PBS). Each new reagent addition was preceded by three washes with 200 μl of NBD1 buffer (20 mM HEPES pH 7.5, 150 mM NaCl, and 10% (w/v) glycerol, 10% (w/v) ethylene glycol, 2 mM ATP, 3 mM MgCl₂). Then, biotinylated purified NBD1 proteins at 5 μg/ml were immobilized 30 min at RT followed by 1 h RT incubation with 100 μl various concentrations (0-20 μg/ml) of purified nanobodies. Signal detection was followed using His-tag specific antibody (Invitrogen, catalogue number: MA1-135, 1:3000 dilution) to detect the nanobodies and secondary antibody anti-mouse coupled to horse radish peroxidase (HRP) (Millipore, catalogue number: AP308P, 1:5000 dilution). 50 μl of 1-Step UltraTMB-ELISA (ThermoScientific) was used as a substrate for the peroxidase and intensity of the reaction was proportional to absorbance measured at 450 nm with SynergyMx (BioTek) after addition of 50 μl H₂SO₄ at 1M.

[5] = molecular target: T3, 2PT-F508del-CFTR expressed in BHK-21 cells (human, UniProt P13569 1-1480, I539T; S492P; A534P; F508del); assay: flow cytometry on permeabilised BHK-21 cells expressing 2PT-F508del-CFTR, anti-tag antibody and Alexa Fluor 488 secondary
T3 construct: Full-length F508del CFTR stabilized by the three point mutations; permeabilized cells in flow cytometry
From the text: Graph depicts one representative of at least three independent experiments. (FIG. 4F) Average median fluorescence (fold over negative control) for each of the three representative nanobodies as illustrated in (FIG. 4D) and (FIG. 4E). Quantification of at least 3 independent experiments (±SEM). (g) Immunoblot of CFTR from solubilized BHK-21 cells pulled-down with His-tagged nanobodies, including a non-CFTR nanobody as a control. Eluted nanobodies-CFTR complexes were separated by SDS-PAGE and presence of CFTR was detected with mAb 596 antibody after immunoblotting. Arrows indicate the mature (band C) and immature (band B) forms of CFTR. Representative of at least 3 independent experiments. (FIG. 4H) Flow cytometry analysis of nanobodies T2a, T8 and G3a on BHK-21 cells expressing 2PT-F508del showing increased labelling for T2a and G3a, but not T8. (FIG. 4I) Quantification of data illustrated in […]. Average of 3 independent experiments (±SEM).
Parental BHK-21 cells (ATCC; CCL-10) and cells stably overexpressing human wt-CFTR^{[43,44,47]} or 2PT-F508del-CFTR, as described above, were permeabilized with 0.01% n-Dodecyl-β-D-Maltopyranoside β-DDM—Inalco) at least for 2 h on ice. In the meantime, cells were incubated with 50 μg/ml nanobodies and DRAQ7 (0.3 μM—Biostatus) to monitor the permeabilization state. Nanobody binding was detected by using His-tag specific antibody (Invitrogen, catalogue number MA1-135, 1 μg/ml) or Myc-tag specific antibody (Invitrogen, catalogue number 13-2500, 2 μg/ml) and then anti-mouse-Alexa Fluor 488 (Invitrogen, catalogue number A11001, 1.3 μg/ml) at least for 30 min on ice. Cells were washed one time between each step by centrifugation (200×g for 5 min at 4° C.). All incubations (100 μl) and washes (1.5 ml) were performed in PBS with 6% fetal bovine serum (FBS) and 0.01%13-DDM on ice. Cells fluorescence was measured with Gallios Flow Cytometer (Beckman Coulter). Data were analyzed with Kaluza software.

[6] = molecular target: T4, 2PT-NBD1 (human CFTR nucleotide-binding domain 1, residues 387-646, with S492P, A534P, I539T) (human, UniProt P13569 388-646, biotinylated for the ELISA (sites not given)); assay: ELISA, biotinylated 2PT-NBD1 on avidin-coated plate, T8 titrated, anti-His detection
T4 construct: N-terminal His6-SUMO tag removed with Ulp1; In the T2a-T4 and T27 crystals the domain was cut by papain or subtilisin
Method: as §1
(§2) For dose-response assays, Nunc MaxiSorp 96-well plates (ThermoScientific), were coated with 5 μg/ml NeutrAvidin Biotin-Binding protein (ThermoScientific) overnight at 4° C. and blocked 2 h at room temperature (RT) with 2% milk in phosphate-buffered saline (PBS). […] 50 μl of 1-Step UltraTMB-ELISA (ThermoScientific) was used as a substrate for the peroxidase and intensity of the reaction was proportional to absorbance measured at 450 nm with SynergyMx (BioTek) after addition of 50 μl H₂SO₄ at 1M.

F508del-2PT-NBD1 [7] = molecular target: T2, F508del-2PT-NBD1; assay: ELISA, biotinylated F508del-2PT-NBD1 on avidin-coated plate, T8 titrated, anti-His detection; normalised to the maximum of T8 on 2PT-NBD1
Method: as §1, §2

T3 sequence (P13569 other isoform, or with tags, fused parts or gaps I539T/S492P/A534P/F508del): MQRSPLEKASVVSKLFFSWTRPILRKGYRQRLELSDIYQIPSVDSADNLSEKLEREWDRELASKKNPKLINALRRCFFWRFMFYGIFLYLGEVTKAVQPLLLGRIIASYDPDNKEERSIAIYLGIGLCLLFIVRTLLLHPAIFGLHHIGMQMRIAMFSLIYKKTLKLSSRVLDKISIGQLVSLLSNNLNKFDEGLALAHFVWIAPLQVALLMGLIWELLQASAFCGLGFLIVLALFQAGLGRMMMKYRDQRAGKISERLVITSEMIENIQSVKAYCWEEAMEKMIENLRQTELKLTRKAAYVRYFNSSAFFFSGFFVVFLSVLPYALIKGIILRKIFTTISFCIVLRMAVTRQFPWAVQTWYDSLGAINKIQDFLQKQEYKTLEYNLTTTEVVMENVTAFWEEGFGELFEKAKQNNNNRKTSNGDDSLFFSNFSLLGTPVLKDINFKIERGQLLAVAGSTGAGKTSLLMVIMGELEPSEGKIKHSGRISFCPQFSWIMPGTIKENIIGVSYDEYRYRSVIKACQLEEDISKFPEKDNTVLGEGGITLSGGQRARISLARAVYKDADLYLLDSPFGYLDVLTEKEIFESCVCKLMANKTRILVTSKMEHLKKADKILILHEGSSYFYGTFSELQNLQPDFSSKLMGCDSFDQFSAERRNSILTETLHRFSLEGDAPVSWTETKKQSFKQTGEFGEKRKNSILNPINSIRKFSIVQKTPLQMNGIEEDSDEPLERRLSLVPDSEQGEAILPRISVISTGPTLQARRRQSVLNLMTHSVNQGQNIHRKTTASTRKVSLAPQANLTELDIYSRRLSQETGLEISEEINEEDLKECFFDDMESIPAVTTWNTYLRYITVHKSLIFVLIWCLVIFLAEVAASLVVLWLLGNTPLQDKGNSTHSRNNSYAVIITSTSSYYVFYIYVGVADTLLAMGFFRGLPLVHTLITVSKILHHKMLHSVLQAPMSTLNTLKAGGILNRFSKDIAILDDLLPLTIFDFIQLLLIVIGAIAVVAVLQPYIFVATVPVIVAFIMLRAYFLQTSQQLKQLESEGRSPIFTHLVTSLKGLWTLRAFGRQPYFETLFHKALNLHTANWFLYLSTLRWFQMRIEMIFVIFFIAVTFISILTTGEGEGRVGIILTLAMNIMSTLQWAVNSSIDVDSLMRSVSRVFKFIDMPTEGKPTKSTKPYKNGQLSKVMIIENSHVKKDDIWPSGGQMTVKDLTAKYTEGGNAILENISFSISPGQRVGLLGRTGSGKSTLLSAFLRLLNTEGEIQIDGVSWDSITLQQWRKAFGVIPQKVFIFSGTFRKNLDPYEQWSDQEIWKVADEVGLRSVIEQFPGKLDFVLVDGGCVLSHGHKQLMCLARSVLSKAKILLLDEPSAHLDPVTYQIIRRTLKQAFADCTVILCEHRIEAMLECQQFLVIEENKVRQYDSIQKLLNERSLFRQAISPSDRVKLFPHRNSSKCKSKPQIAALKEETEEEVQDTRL
T1 sequence (P13569 other isoform, or with tags, fused parts or gaps R1048A R1048A limits assumed): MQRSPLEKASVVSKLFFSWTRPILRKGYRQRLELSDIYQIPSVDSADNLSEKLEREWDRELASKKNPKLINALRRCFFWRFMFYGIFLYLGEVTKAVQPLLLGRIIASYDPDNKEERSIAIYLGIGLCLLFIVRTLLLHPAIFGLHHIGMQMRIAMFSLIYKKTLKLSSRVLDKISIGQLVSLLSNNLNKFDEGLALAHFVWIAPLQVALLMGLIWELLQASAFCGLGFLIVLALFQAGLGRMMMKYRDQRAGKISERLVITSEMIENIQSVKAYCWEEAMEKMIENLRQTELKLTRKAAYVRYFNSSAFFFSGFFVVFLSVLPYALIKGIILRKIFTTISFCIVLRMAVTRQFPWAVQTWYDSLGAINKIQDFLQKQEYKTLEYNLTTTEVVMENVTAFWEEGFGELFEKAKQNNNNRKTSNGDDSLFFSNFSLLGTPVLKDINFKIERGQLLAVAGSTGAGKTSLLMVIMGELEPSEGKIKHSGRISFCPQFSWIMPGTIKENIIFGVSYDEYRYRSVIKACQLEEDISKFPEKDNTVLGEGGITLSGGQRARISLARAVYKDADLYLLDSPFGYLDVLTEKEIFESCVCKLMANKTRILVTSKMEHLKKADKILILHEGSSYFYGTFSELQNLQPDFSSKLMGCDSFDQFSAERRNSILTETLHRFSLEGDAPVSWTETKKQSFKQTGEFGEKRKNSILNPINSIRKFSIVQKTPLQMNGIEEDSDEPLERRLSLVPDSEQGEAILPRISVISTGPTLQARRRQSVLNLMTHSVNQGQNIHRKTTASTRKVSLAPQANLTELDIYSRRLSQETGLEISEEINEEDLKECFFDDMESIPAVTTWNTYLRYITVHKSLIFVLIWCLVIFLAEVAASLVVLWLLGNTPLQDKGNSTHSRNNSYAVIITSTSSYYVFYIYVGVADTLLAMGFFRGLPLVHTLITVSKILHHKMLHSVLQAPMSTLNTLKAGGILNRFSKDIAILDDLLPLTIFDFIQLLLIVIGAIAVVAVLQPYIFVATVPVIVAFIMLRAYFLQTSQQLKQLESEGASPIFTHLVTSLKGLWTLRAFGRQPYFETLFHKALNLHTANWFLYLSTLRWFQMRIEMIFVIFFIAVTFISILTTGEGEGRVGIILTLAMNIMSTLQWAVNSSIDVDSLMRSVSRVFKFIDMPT
T2 sequence (P13569 other isoform, or with tags, fused parts or gaps limits assumed, stated change not applied): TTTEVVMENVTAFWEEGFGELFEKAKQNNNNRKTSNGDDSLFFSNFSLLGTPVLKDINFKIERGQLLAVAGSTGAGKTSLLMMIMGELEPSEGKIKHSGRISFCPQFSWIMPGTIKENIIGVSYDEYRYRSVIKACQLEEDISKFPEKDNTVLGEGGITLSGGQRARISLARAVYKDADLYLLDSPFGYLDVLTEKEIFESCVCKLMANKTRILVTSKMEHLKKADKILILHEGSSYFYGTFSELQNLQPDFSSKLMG
T4 sequence (P13569 388-646 V470M/S492P/A534P/I539T limits assumed): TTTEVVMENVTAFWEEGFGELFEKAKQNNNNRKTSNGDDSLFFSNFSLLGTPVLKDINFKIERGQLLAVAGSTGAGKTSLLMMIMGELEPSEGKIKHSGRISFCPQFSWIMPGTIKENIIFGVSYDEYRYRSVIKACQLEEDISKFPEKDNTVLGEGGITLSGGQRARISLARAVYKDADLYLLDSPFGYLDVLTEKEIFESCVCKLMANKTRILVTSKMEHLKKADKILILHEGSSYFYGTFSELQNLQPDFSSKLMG
Sequence of 2PT-NBD1-RE (2PT-NBD1 with residues 387-678, containing the regulatory extension) (P13569 other isoform, or with tags, fused parts or gaps limits assumed): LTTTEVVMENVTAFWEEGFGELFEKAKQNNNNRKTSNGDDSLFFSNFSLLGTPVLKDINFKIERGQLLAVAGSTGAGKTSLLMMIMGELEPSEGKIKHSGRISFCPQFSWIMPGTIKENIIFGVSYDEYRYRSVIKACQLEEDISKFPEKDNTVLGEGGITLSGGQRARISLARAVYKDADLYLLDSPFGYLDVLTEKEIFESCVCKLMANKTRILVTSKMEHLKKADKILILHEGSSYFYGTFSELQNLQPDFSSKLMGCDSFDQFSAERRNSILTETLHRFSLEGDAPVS

EC50 (read off the curve) [3] [nM]	EC50 (read off the curve) (F508del-2PT-NBD1 [4]) [nM]	binding result [5]	EC50 (read off the curve) [6] [nM]	Binder	thermostabilization (nanoDSF, Tm) [1] [°C]	Tm of stab-CFTR in complex with the nanobody (nanoDSF, first derivative of 350 nm fluorescence); 'stab-CFTR (51.4°C)', 'T2a (66.6°C)' alone [2] [°C]	binding result (F508del-2PT-NBD1 [7])
~10	~10	binds	–	Nanobody T2a (VHH, not shown: small tags and cut ends, Llama nanobody; also called Nb T2a; T2a Nb) VHH: QVQLQESGGGLVQAGGSLRLSCAASGSIFRIDAMGWYRQAPGKQRELVAHSTSGGSTDYADSVKGRFTISRDNAKNTVYLQMNSLKPEDTAVYYCNADVRTRWYASNNYWGQGTQVTVSS	8	59.7	–
–	–	no binding	~10	Nanobody T8 (VHH, not shown: small tags and cut ends, Llama nanobody; also called Nb T8; T8 Nb) VHH: QVQLQESGGGLVQPGGSLRLSCAASGSTSSINAMGWYRQAPGKQREPVAISSSGGDTRYAEPVKGRFTISRDNAQNKVYLQMNSLKPEDTAVYYCWLNWGRTSVNSWGQGTQVTVSS	–	–	no binding (tested: log [T8] about -5.9 M)
